Assay results as given in patent publication US20220281965A1 (AstraZeneca / MedImmune, published 2022).
Where a chain is given by its changes, count along the chain named.

Columns and labels:
[1] = target: T1, mature recombinant human GDF-15 with an N-terminal Flag and His tag, biotinylated (human, UniProt Q99988 197-308, chemically biotinylated with EZ link Sulfo-NHS-LC-Biotin, sites not stated); assay: SPR Biacore 8K, 25 C, biotinylated GDF-15 on streptavidin C1 chip, Fab as analyte
T1 construct: not shown: N-terminal Flag and His tags
T1 sequence: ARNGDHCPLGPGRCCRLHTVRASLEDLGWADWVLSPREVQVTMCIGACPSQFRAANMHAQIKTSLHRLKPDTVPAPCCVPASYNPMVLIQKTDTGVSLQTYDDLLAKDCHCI
Experimental: (§1) The experiments were carried out using mature recombinant human GDF-15, human GDF-15 H202D variant, mouse GDF-15, and cynomolgus GDF-15 with an N-terminal Flag and His tag. All species were chemically biotinylated using EZ link Sulfo-NHS-LC-Biotin (Thermo).
(§2) Streptavidin was covalently immobilized to a C1 chip surface using standard amine coupling techniques at a concentration of 4 μg/ml in 10 mM Sodium acetate pH 4.5. Recombinant biotinylated GDF-15 species were titrated onto the streptavidin chip surface in HBS-EP+ buffer to enable Fab binding.
(§3) Multiple buffer-only injections were made under the same conditions to allow for double reference subtraction of the final sensorgram sets, which were analyzed using Biacore 8K Evaluation Software. The chip surface was fully regenerated with pulses of 50 mM NaOH.

[2] = target: T2, mature recombinant human GDF-15 H202D variant with an N-terminal Flag and His tag, biotinylated (human, UniProt Q99988 197-308, chemically biotinylated with EZ link Sulfo-NHS-LC-Biotin, sites not stated); assay: as above
T2 construct: also called Human H202D; not shown: N-terminal Flag and His tags
T2 chain: T1 sequence with H6D
Experimental: as §1, §2, §3

[3] = target: T3, mature recombinant cynomolgus GDF-15 with an N-terminal Flag and His tag, biotinylated (cynomolgus, UniProt G7PWZ3 197-308, chemically biotinylated with EZ link Sulfo-NHS-LC-Biotin, sites not stated); assay: as above
T3 construct: not shown: N-terminal Flag and His tags
T3 sequence: T1 sequence with H6R, R21H, A54E, T63M, S64N, I112V
Experimental: as §1, §2, §3

[4] = target: T4, mature recombinant mouse GDF-15 with Flag and His tags (mouse, UniProt Q9Z0J7 189-303); assay: SPR Biacore 8K, biotinylated mouse GDF-15 on streptavidin C1 chip, Fab as analyte
T4 construct: also called Flag tagged mouse GDF-15; not shown: FLAG and poly-His tags immediately C-terminal to the furin cleavage site (N-terminal on the mature protein)
T4 sequence: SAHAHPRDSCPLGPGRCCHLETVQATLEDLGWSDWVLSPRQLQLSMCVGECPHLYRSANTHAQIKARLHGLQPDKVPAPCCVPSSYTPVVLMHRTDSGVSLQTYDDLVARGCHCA
Experimental: as §1, §2, §3

Kd [1]: 9.24 nM
koff [1]: 0.0386 s⁻¹
kon [1]: 4.18e+06 M⁻¹ s⁻¹
Kd [2]: 9.5 nM
koff [2]: 0.0385 s⁻¹
kon [2]: 4.06e+06 M⁻¹ s⁻¹
Kd [3]: 15 nM
koff [3]: 0.0686 s⁻¹
kon [3]: 4.58e+06 M⁻¹ s⁻¹
binding result [4]: no binding
B1: AB1170247 Fab (Fab, V domains shown)
VH: QVQLVQSGSELKKPGASVKVSCKASGYTFTSYDINWVRQAPGQGLEWIGWIYPRDGISKYNEKFKGRATLTVDTSASTAYMELSSLRSEDTAVYYCAGTYDPAYFDYWGQGTTVTVSS
VL: EIVLTQSPATLSVSPGERATLSCRASQSISYYLHWYQQKPGQAPRLLIKYASQSISGVPDRFSGSGSGTDFTLKISRVEAEDFGVYYCQQSNSWPYTFGGGTKVEIK
notes: Fab of the humanized antibody, expressed as in Spooner et al. 2015
